From US20260234242A1 (HAINAN SIMCERE ZAIMING PHARMACEUTICAL, published 2026)

T1: human CDH6 with EC2 removed, on HEK293T cells (HEK293T-hCDH6-EC2 deletion) (human, UniProt P55285 54-790)
T1 construct: Signal peptide not removed here
T1 sequence: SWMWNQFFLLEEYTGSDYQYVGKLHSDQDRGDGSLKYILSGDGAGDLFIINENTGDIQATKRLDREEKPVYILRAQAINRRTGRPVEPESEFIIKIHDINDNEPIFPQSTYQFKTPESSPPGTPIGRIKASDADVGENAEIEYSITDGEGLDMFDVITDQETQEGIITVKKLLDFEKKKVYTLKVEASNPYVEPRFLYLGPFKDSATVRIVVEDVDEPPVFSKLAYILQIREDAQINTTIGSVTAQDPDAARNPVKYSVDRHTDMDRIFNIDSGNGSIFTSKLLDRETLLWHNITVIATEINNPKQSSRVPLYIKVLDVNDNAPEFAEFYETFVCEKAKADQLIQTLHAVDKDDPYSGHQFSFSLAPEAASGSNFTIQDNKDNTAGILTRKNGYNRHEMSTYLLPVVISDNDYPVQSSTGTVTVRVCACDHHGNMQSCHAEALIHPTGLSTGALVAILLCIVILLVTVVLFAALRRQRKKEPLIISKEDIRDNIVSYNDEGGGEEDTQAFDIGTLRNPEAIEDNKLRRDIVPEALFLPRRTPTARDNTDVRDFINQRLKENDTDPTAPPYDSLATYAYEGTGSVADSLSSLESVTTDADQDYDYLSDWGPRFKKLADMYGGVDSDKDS

T2: his-tagged human CDH6 extracellular region protein (hCDH6 ECD-his) (human, UniProt P55285 19-615)
T2 construct: also called Human CDH6-his; hCDH6-his; not shown: his tag
T2 sequence: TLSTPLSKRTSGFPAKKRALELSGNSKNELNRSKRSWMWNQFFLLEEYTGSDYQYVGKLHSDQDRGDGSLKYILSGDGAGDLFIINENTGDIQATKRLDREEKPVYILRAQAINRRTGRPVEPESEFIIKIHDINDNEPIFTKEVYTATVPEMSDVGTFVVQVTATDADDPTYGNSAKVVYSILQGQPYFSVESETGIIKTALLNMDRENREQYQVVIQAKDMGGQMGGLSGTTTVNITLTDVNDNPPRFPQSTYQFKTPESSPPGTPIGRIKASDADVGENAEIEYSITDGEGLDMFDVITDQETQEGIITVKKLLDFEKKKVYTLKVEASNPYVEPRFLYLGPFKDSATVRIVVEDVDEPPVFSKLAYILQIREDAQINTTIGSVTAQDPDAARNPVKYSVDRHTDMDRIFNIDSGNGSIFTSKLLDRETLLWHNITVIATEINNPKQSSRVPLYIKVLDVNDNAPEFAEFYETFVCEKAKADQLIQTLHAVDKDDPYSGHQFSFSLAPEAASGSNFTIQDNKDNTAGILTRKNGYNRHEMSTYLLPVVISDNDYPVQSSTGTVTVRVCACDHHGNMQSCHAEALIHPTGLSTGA

B1: CHI-CDH6-1 (antibody, human IgG1, kappa, V domains shown)
VH: QVQLQQPGAELVRPGSSVKLSCKASGYTFTNYWMHWVKQRPIEGLEWIGDIDPSHSETHYTQKFKDKATLTVDKSSSTAYMQLSSLTSEDSAVYYCARGDLGRFDYWGQGTTLTVSS
VL: DIVLTQSPASLAVSLGQRATISCRASESVSIHGTHLMHWYQQKSGQPPKLLIYAASNLESGVPARFSGSGSETDFTFNIHPVEEEDAATYFCQQSFEDPWTFGGGTKLEIKR
notes: also called CHI-hCDH6-1; CH1-CDH6-1
B2: CHI-CDH6-4 (antibody, human IgG1, kappa, V domains shown)
VH: QVQLQQSGPELVKPGASVKISCKASGYAFSNFWMNWVKQRPGKGLEWIGWIYPGDGDTNYNGKFKDKATLTADKSSSTAYIQLSSLTSEDSAVYFCARLYDAWGFFDYWGQGTTLTVSS
VL: QIVLTQSPAIMSASPGQKVTITCSASSSVNYMHWYQQKLGSSPKLWIYDKSKLAPGVPARFSGSGSGTSYSLTISSMEAEDAASYFCHQWSSYPPMTFGGGTKLEIKR
notes: also called CH1-CDH6-4; chimeric antibody of murine CDH6-4
B3: CHI-CDH6-14 (antibody, human IgG1, kappa, V domains shown)
VH: QIQLQQSGPELVKPGTSVKISCKASGYTFTDNYINWVRQRPGQGLEWIGWIYPGTGNSYYNEKFKGKATLTVDTSSSTAYMQFSSLTSEDSAVYLCASSYGDSFDYWGQGTTLTVSS
VL: DIQMTQTTSSLSASLGNRVTISCRASQDIRNYLNWYQQKPDGTFKLLISYTSRLHSGVPSRFSGSGSGTDYSLTVSNLEPEDIATYYCQQYSQLPWTFGGGSRLEIKR
notes: also called CHI-hCDH6-14; CH1-CDH6-14
B4: DS-H01L02 (antibody, human IgG1, kappa, V domains shown)
VH: EVQLVQSGAEVKKPGASVKVSCKASGYTFTRNFMHWVRQAPGQGLEWMGWIYPGDGETEYAQKFQGRVTITADTSTSTAYMELSSLRSEDTAVYYCARGVYGGFAGGYFDFWGQGTLVTVSS
VL: DIQMTQSPSSLSASVGDRVTITCKASQNIYKNLAWYQQKPGKAPKLLIYDANTLQTGVPSRFSGSGSGSDFTLTISSLQPEDFATYFCQQYYSGWAFGQGTKVEIKR
notes: Positive control, variable regions from WO2018212136A1; also called positive control anti-human CDH6 antibody
B5: NOV0712 (antibody, human IgG1, kappa, V domains shown)
VH: QVQLLESGGGLVQPGGSLRLSCAASGFTFSSHGMHWVRQAPGKGLEWVSVISGSGSNTGYADSVKGRFTISRDNSKNTLYLQMNSLRAEDTAVYYCARQWGSYAFDSWGQGTLVTVSS
VL: DIQMTQSPSSLSASVGDRVTITCRASQSISSYLNWYQQKPGKAPKLLIYAVSTLQSGVPSRFSGSGSGTDFTLTISSLQPEDFATYYCQQSGTFPPTTFGQGTKVEIKR
notes: as for B4
B6: CHI-CDH6-7 (antibody, human IgG1, kappa, V domains shown)
VH: EVKLVESGGGLVKPGGSLKVSCAASGFTFSDHGMAWVRQAPGKGPEWVAFISNLAYSIYYADTVTGRFTISRENAKNTLYLEMSSLRSEDTAMYYCARVYVKWYFDVWGAGTTVTVSS
VL: DIQMTQSPASLSASVGETVTITCRASENIDSYLAWYQQKQGKSPQLLVFAATLLADGVPSRFSGSGSGTQYSLKINSLQSEDVARYYCQHYYSTPLTFGAGTKLELKR
notes: also called CH1-CDH6-7; chimeric antibody of murine CDH6-7
B7: CHI-CDH6-3 (antibody, human IgG1, kappa, V domains shown)
VH: QVQLQQPGAELVKPGASVKLSCKASGYTFTSYWIHWVKQRPGQGLEWIGEINPSNGVTNCNENFKSKATLTVDKSSSTAYMQLSSLTSEDSAVYYCTIPNLLWWYFDVWGAGTTVTVSS
VL: DIQMTQSPASLSVSVGETVTITCRASENIYSNLAWYQQKQGKSPQLLVYEATNLADGVPSRFSGSGSGTQYSLKINSLQSEDFGSYYCQHFWGTLWTFGGGTKLEIKR
notes: also called CH1-CDH6-3; chimeric antibody of murine CDH6-3
B8: CHI-CDH6-5 (antibody, human IgG1, kappa, V domains shown)
VH: QVQLQQSGAELVRPGTSVKMSCKAAEYTFTNYWIGWVKQRPGHGLEWIGDLYPGGDHANYNEKFEGKATLTADTSSSTAYMQLSSLTSEDSAIYYCARGMLTTGFDSWGQGTTLTVSS
VL: DIVMSQSPSSLAVSAGEKVTMSCKSSQSLFNSRTRKNYLAWYQQKPGQSPKLLIYWASTRESGVPDRFTGSGSGTDFTLTISSVQAEDLAVYYCKQSYYLRTFGGGTKLEIKR
notes: also called CH1-CDH6-5; chimeric antibody of murine CDH6-5
B9: CHI-CDH6-12 (antibody, human IgG1, kappa, V domains shown)
VH: EVNLVESGGGLVQPGDSLTLSCSASGFTFTDYYMSWVRQFPGKALEWLALIRNKANSYTTEYSASVKGRFTISRDNSQSILYLQMNALRAEDSATYYCARDSYYSHDGFAYWGQGTLVTVSA
VL: DIVLTQSPASLAVSLGQRATISCRASKSVSTSSYTYMHWYQQKPGQPPKLLIKFASYLESGVPARFSGSGSGTDFTLNIHPVEEEDAATYYCQHSREFPFTFGTGTKLEIKR
notes: also called CH1-CDH6-12; chimeric antibody of murine CDH6-12

Molecular target: T1, human CDH6 with EC2 removed, on HEK293T …
Assay: FACS, HEK293T-hCDH6-EC2 deletion cells

Row | Binder | Max MFI [MFI]
1 | B1 | 51300
2 | B2 | 75
3 | B3 | 814
4 | B4 | 8390
5 | B5 | 39100
6 | B6 | 13000
7 | B7 | 7550
8 | B8 | 343
9 | B9 | 11000

Molecular target: T2, his-tagged human CDH6 extracellular …
Assay: ELISA, coated antigen; ELISA, hCDH6 ECD-his coated at 1 µg/mL, antibody in solution
Experimental: Human CDH6 protein (hCDH6 ECD-his, conventionally synthesized), monkey CDH6 protein (cynoCDH6 ECD-his, conventionally synthesized; the cynoCDH6 ECD sequence was derived from Uniprot #A0A2K5TW62 (19-615)), and murine CDH6 protein (mCDH6 ECD-his, conventionally synthesized; the mCDH6 ECD sequence was derived from Uniprot #P97326 (19-615)) were diluted with PBS to a final concentration of 1 μg/mL, and added to a 96-well ELISA plate at 100 μL/well. The plate was incubated at 4° C. overnight. The next day, the plate was washed 3 times with a plate washing solution (PBS+0.01% (v/v) Tween 20), and a blocking buffer (PBS+0.01% (v/v) Tween 20+2% (w/w) BSA) was added for blocking at room temperature for 2 h. The blocking buffer was discarded, and the plate was washed 3 times. The chimeric antibodies were diluted with 1% BSA+PBS (purchased from Cytiva, Cat. No. SH30264.01) and added to the 96-well plate at 50 μL/well. After incubation at 37° C. for 2 h, the plate was washed 3 times with a plate washing solution. […] The plate was incubated at 37° C. for 1 h and then washed 5 times with a plate washing solution. A TMB substrate (purchased from Seracare, Cat. No. 5120-0077) was added at 50 μL/well and incubated at room temperature for 10 min, then a stop solution (1.0 N HCl) was added at 50 μL/well. OD450 nm values were read using a microplate reader (Biotek). Analysis was performed by the GraphPad Prism software, data were fitted, and EC50 values were calculated. The chimeric antibodies tested all had strong binding to the human CDH6 protein, the monkey CDH6 protein, and the murine CDH6 protein.

Row | Binder | EC50 [nM]
10 | B2 | 0.053
11 | B4 | 0.168
12 | B6 | 0.488
13 | B7 | 0.03
14 | B8 | 0.043
15 | B9 | 0.105
